# Changes are numbered by the printed parent chain.
# T1: MERS-CoV spike protein on live MERS-CoV (EMC, KNIH-002, KNIH-016 and KNIH-042 strains) (MERS-CoV)
# T1 chain: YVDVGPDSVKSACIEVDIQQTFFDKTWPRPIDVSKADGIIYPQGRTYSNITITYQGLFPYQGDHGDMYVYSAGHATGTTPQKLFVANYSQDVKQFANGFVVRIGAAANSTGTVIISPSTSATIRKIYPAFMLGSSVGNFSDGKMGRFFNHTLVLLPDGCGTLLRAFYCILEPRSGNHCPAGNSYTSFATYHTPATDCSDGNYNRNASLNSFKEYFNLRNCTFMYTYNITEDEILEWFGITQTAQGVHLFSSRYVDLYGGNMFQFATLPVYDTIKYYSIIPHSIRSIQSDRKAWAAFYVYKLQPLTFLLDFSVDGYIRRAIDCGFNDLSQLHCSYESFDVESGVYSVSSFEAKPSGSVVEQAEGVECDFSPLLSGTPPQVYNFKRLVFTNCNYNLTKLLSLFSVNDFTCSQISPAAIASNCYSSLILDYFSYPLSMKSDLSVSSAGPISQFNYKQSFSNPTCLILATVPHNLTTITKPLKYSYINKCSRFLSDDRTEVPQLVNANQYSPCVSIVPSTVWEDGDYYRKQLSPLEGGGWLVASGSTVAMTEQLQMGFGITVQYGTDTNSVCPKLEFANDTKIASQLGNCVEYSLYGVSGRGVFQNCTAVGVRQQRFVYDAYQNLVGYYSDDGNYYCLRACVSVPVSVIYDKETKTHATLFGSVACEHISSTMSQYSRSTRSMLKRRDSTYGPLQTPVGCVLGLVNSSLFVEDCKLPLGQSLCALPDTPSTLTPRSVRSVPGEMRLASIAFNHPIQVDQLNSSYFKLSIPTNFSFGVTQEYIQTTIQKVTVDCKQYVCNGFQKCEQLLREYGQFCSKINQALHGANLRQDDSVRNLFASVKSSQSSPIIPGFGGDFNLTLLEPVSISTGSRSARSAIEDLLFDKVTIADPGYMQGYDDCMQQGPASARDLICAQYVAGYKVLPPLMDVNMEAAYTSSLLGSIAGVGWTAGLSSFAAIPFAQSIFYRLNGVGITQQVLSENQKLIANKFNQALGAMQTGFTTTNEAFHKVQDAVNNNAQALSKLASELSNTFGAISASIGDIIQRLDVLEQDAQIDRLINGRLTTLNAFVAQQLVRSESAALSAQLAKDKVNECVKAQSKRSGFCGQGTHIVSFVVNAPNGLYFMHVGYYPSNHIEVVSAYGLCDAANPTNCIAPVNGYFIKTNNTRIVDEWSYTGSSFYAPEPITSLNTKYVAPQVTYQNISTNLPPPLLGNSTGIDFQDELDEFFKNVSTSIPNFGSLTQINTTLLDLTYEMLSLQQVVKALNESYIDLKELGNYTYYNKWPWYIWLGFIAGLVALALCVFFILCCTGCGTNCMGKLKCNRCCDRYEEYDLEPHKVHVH
# B1: 90-E6 antibody (antibody, V domains shown)
# VH: EVQLVESGGGLVQPGRSLRLSCAASGFTFDDHAMHWVRQAPGKGLEWVSGFSWNSGSIGYADSVKGRFTISRDNAKNSLYLQMNSLRAEDTALYYCAKDRRSDYYFYGMDVWGQGTTVTVSS
# VL: QSVLTQPPSVSAAPGQKVTISCSGSRSNIGNNYVSWYQQLPGTAPKLLIYDNNKRPSGIPDRFSGSKSGTSATLGITGLQTGDEADYYCGTWDSSLNAGVFGGGTKLTVLG
# B2: 77-A6 antibody (antibody, V domains shown)
# VH: EVQLLESGGGLVQPGGSLRLSCADSGLTFSSYAMSWVRQAPGKGLEWVSAISVSGGSTYYSDSVKGRFTISRDNSKNTLSLQMNSLRAEDTAVYYCVKARSIVGPFDYWGQGTLVTVSS
# VL: B1 VL with V3A, R26S, Q39H, N53I, K54M, S94T, N97S, G99V
# B3: 90-F2 antibody (antibody, V domains shown)
# VH: QVQLVQSGAEVKKPGASVKVSCKASGYTFTTYYMHWVRQAPGQGLEWMGIINPSGGSTSYAQKFQGRVTMTRDTSTSTVYMELSSLRSEDTAVYYCARGAVVVILDYWGQGTLVTVSS
# VL: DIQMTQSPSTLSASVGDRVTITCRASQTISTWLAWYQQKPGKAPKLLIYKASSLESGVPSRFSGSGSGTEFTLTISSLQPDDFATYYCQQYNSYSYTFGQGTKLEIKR
# B4: 77-A5 antibody (antibody, V domains shown)
# VH: QVQLVQSGAEVKKPGSSVKVSCKASGGTFRSHAISWVRQAPGQGLEWMGGIIPIFASANYAQKFQGRVTITADESTSTAYMDLSSLRSDDTAVYYCAKNVSPKSYSGRYSISYFYGVDVWGQGTTVTVSS
# VL: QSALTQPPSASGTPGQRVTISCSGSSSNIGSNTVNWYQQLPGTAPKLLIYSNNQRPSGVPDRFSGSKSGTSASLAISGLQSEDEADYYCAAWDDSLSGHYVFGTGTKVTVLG
# B5: 90-E5 antibody (antibody, V domains shown)
# VH: QVQLVQSGAEVKKPGSSVKVSCKASGGTFSSYTINWVRQAPGQGLEWMGGIIPIFGTANYAQKFQGRVTITADASTSTAYMELSSLRSEDTAVYYCARVLLRSSSWFSSNWFDPWGQGTLVTVSS
# VL: QSVLTQPPSVSGAPGQRVTISCTGSSSNIGAGYDVHWYQQLPGTAPKVLIYGNSNRPSGVPDRFSGSKSDTSASLAITGLQAEDEADYYCQSYDSSLSVVFGGGTKLTVLG
# B6: 90-A3 antibody (antibody, V domains shown)
# VH: QVQLVQSGAEVKKPGASVKVSCMTSGYTFTSYGISWVRQAPGQGLEWMGWISAYNGNTNYAQKLQGRVTMTTDTSTSTAYMELRSLRSDDTAVYYCARDRGAYWDCGGDCYLSAFDYWGQGTLVTVSS
# VL: B1 VL with S2A, L4V, R26S, N97S, G99V
# B7: 90-C4 antibody (antibody, V domains shown)
# VH: QVQLQESGPGLVKPSGTLSLTCAVSGGSINSSNWWSWVRQPPGKGLEWIGEIYYSGSTNYNPSLKSRVTTSVDNSKNQFSLKLSSVTAADTAVYYCATFDSGGYNPNWFDPWGQGTLVTVSS
# VL: QSALTQPPSVSGAPGQRVTISCTGSSSSIGAGYDVHWYQQLPGTAPKLLIYGNSNRPSGVPDRFSGSKSGTSASLAITGLQAEDEADYYCQSYDSSLSGYVFGTGTKVTVLG
# B8: 90-A9 antibody (antibody, V domains shown)
# VH: QVQLVQSGAEVKKPGSSVKVSCKASGGTFSSFPISWVRQAPGQGLEWMGGIIPIFGAANYAQKFQGRVTITADESTSTAYMELSSLRSEDTAVYYCARNYEEIVVIPAIMNFGYWGQGTLVTVSS
# VL: EIVLTQSPGTLSLSPGERATLSCRASQSVASSYLAWYQQKPGQAPRLLIYGTSSRATGIPDRFSGSGSGADFTLTISRLEPEDFAVYYCQQYGTSPLTFGGGTKVEIK
# B9: 90-B7 antibody (antibody, V domains shown)
# VH: EVQLLESGGGLVKPGGSLRLSCAASGFTFGSYSMTWVRQAPGKGLEWVSSISSSSSYIYYADSVKGRFTISRDNAKNSLFLQMNSLRAEDTAVYYCARGNGYCSHNSCYKIGVWFDPWGQGTLVTVSS
# VL: B1 VL with S2A, L4V, R26S, N97S, G99F, G103T, L107V
# B10: 90-B2 antibody (antibody, V domains shown)
# VH: QVQLQESGPGLVKPSETLSLTCTVSGGSISSSSYYWGWIRQPPGKGLEWIGSIYYSGNTYYNPSLKSRVTISVDTSKNHFSLRLSSVTAADTAVYFCARSLPHYDSTGYLLYWGQGTLVTVSS
# VL: EIVLTQSPATLSLSPGGRATLSCRASQSVSRYLAWYQQKPGRAPRLLIYDASNRAPGIPARFSGSGSGTDFTLTISSLEPEDFAVYYCQQRSNWPQTTFGPGTKVDIKR
# B11: 90-F1 antibody (antibody, V domains shown)
# VH: QVQLVQSGAEVKRPGSSVKVSCKTSGGTFNNNAINWVRQAPGQGLEWMGGIIPFFGIAKYAQKFQGRVTITADESTSTAYMELSSLRSEDTAVYYCARDLPRESSYGSGSYYTHYYAMDVWGQGTTVTVSS
# VL: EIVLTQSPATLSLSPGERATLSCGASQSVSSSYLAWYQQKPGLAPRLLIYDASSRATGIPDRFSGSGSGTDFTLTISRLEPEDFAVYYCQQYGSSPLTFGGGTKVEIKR
# Biological target: T2, MERS-CoV RBD antigen (receptor binding domain, amino acids 377 to 588 of the spike protein) (MERS-CoV, UniProt K9N5Q8 377-588)
# Assay: not given
row,Binder,EC50 (read off the curve) [µg/mL]
1,B1,~0.09
2,B2,~0.06
3,B3,~0.07
4,B4,~0.008
5,B5,~0.07

# Biological target: T2, MERS-CoV RBD antigen (receptor binding …)
# Assay: ELISA, RBD antigen coated
row,Binder,binding result
1,B6,no binding (tested: up to 10 µg/ml)
2,B7,no binding (tested: up to 10 µg/ml)
3,B8,no binding (tested: up to 10 µg/ml)

# Biological target: T3, MERS-CoV S1 antigen (S1 domain, amino acids 1 to 757 of the spike protein) (MERS-CoV, UniProt K9N5Q8 18-757)
# Assay: not given
row,Binder,EC50 (read off the curve) [µg/mL]
1,B5,~0.03

# Biological target: MERS-CoV full-length spike trimer antigen (amino acids 1 to 1275 of the spike protein, lacking the … (MERS-CoV, UniProt K9N5Q8 18-1275))
# Assay: not given
row,Binder,EC50 (read off the curve) [µg/mL]
1,B7,~0.08
2,B5,~0.01

# Biological target: T2, MERS-CoV RBD antigen (receptor binding …)
# Assay: SPR, RBD antigen attached on a CM5 chip, antibody loaded, HBS-EP
row,Binder,binding result
1,B9,no binding (tested: 500 nM)
2,B10,no binding (tested: 500 nM)

# Biological target: T3, MERS-CoV S1 antigen (S1 domain, amino …)
# Assay: SPR, S1 antigen on CM5 chip, antibody as analyte (called avidity)
Binder,Kd [pM],koff [s⁻¹],kon [M⁻¹ s⁻¹]
B2,695,4.43e-05,63800
B9,153,0.000104,681000
B11,153,9.88e-05,648000
B3,6600,0.000882,134000
B10,≤ 75.1,≤ 1e-05,131000
B4,≤ 75.1,≤ 1e-05,133000

# Biological target: T2, MERS-CoV RBD antigen (receptor binding …)
# Assay: SPR, RBD antigen on CM5 chip, antibody as analyte (called avidity)
Binder,Kd [pM],koff [s⁻¹],kon [M⁻¹ s⁻¹]
B2,673,3.15e-05,46700
B11,72,2.71e-05,376000
B3,5860,0.0014,238000
B4,161,2.08e-05,130000

# Biological target: T1, MERS-CoV spike protein on live MERS-CoV …
# Assay: cell-based or functional assay
# Design: ND50 (PRNT with MERS-CoV): unit not given beside the values
Binder,ND50 (PRNT with MERS-CoV),ND50 antibody conc. (PRNT with MERS-CoV) [µg/mL]
B1,0.68,14.8
B6,0.63,15.8
B2,95.7,0.1
B9,14.9,0.67
B7,0.78,12.8
B8,0.58,17.3
B11,956,0.01
B3,54,0.19
B10,39.5,0.25
B4,35.6,0.28
B5,6.6,1.51

# From US20230265169A1 (US Dept. of Health and Human Services, published 2023)
